Reference: PMC8629787 (Cellular and Molecular Life Sciences: CMLS, 2021)

Biological target: the molecule itself
Assay: SEC

B1: BambL, fucose-binding lectin of Burkholderia ambifaria (recombinant, unlabelled) (natural protein)
chain: not shown
With B1 the “stoichiometry N” value was 3.
